Test results taken from US6534300.

Legend:
porcine uteroferrin = porcine uteroferrin (UniProt P09889)
Chain of UniProt P09889 (P09889 22-340): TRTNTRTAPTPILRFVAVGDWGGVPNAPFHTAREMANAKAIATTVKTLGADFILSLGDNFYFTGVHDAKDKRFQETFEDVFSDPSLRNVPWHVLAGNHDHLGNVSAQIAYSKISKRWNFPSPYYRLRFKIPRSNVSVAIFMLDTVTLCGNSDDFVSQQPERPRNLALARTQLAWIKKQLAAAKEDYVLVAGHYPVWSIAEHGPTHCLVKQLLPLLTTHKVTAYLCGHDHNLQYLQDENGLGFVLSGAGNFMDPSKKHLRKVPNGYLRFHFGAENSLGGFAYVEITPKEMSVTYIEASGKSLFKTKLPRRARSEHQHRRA

Substance: bovine UDP-N-acetylglucosamine: lysosomal enzyme N-Acetylglucosamine-1-phosphotransferase
- Km as acceptor for transfer of GlcNAc-1-P (RNAse B): the Km was not reached at the solubility limit of the protein (at 600 µM)
- Km as acceptor for transfer of GlcNAc-1-P (porcine uteroferrin): Kms below 20 µM
- Km as acceptor for transfer of GlcNAc-1-P (cathepsin D): Kms below 20 µM
